Measurements: US20150351390A1, “COMPOSITIONS AND METHODS FOR AUXIN-ANALOG CONJUGATION” (PIONEER HI-BRED INTERNATIONAL, INC., priority 2012, published 2015)

Legend:
[1] = LC-MS assay of GH3 conjugation of IAA with Asp or Glu; assay type: biochemical; conditions: for kcat (hrs−1) IAA-Asp: conjugation of IAA with Asp by recombinant GH3 protein, IAA-Asp product by LC-MS; for kcat (hrs−1) IAA-Glu: conjugation of IAA with Glu by recombinant GH3 protein, IAA-Glu product by LC-MS
Description: (§1) To detect and monitor the formation of acyl conjugates with 2,4-D or dicamba, a sensitive LC-MS method was developed using the respective amino acid conjugate standards. […] The reaction was performed at 30° C., 105 rpm, for 3 hours in buffer containing 20 mM Tris-HCl (pH 8.0), 5 mM MgCl2, 5 mM auxin (IAA, 2,4-D or dicamba), 5 mM ATP, 5 mM Asp or Glu, 1 mM DTT and 44 to 164 μg/mL purified GH3 protein in 100 μL reaction. After 3 hours of reaction, 400 μL 100% MeOH was added to the reaction mixture for protein precipitation. The supernatant was diluted 20× in water and then analyzed by LC-MS (AB Sciex 4000 QTrap coupled with Shimadzu Nexera UHPLC) using a Phenomenex Luna 3 μm Phenyl-Hexyl (00B-4256-Y0) column. The concentration of the conjugates was calculated based on the standards. Kinetic parameters were estimated by fitting initial velocity values to the Michaelis-Menten equation.
(§2) The GH3 superfamily conjugase activity analysis of IAA, 2,4-D or dicamba with Asp or Glu was done using LC-MS to analyze the final conjugate products as described in Example 1. Protein sequences of GH3 homologs (Table 3) were obtained from public databases (NCBI, http://www.ncbi.nlm.nih.gov/) by Blast analysis of AtGH3.17 protein sequence (accession # Q9FZ87). Coding sequences were designed for optimal expression in E. coli based on the protein sequences and synthesized. Synthesized coding sequences along with N-term his-tag coding sequences were cloned into a pET24a-based E. coli expression vector. The E. coli expression vectors were transformed into OverExpress C41(DE3) cells (Lucigen) for protein expression. Recombinant E. coli strains were inoculated into 5 ml LB media supplemented with 40 mg/L kanamycin and cultured overnight at 37° C. The overnight culture (0.5 mL) was inoculated into 50 mL LB medium plus 40 mg/L kanamycin and grown at 30° C. until OD600 reached 0.6. The cultures were induced with 0.2 mM IPTG at 16° C., 230 rpm overnight. Cells were harvested by centrifugation at 7,000 rpm for 10 mins. The cell pellet from 50 mL of cell culture was frozen and thawed twice and then lysed in 800 μL lysis buffer A (150 mM NaCl, 50 mM Tris-HCl pH 8.0, 5 mM MgCl2, 10% glycerol) plus 20 mM imidazole, 1 mM DTT, 0.2 mg/ml lysozyme, 1/200 protease inhibitor cocktail (EMD set3, EDTA free) and 1/2000 endonuclease. Lysate was then centrifuged at 13,000 rpm for 30 min at 4° C. Supernatant was loaded onto 200 μL Ni-NTA columns pre-equilibrated with buffer A with 20 mM imidazole at 4° C. Each column was then washed with (1) 2×800 μL of buffer A with 10 mM imidazole, (2) 2×800 μL of buffer A with 20 mM imidazole and (3) 2×200 μL of buffer A with 50 mM imidazole. Protein was eluted with 200 μL of buffer A with 250 mM imidazole. The concentration was measured by Bradford assay. Purified protein was used in conjugation reaction assays as described in example 1.

[2] = LC-MS assay of GH3 conjugation of 2,4-D with Asp or Glu; assay type: biochemical; conditions: 5 mM 2,4-D substrate; for kcat (hrs−1) 2,4-D-Asp: conjugation of 2,4-D with Asp by recombinant GH3 protein, 2,4-D-Asp product by LC-MS; for kcat (hrs−1) 2,4-D-Glu: conjugation of 2,4-D with Glu by recombinant GH3 protein, 2,4-D-Glu product by LC-MS
Description: as §1, §2

B1: SbEES16535: GH3 protein, accession EES16535 (protein)
chain: MAHTPAMENSYVQVHHLATSMAIHTHKPFLAPPKHVHLAFHSPTSAPSRLLATTRSRPGLSQPAAMMAETDADKLRFIEEVTADVAAVQERVLAEILSRNADAEYLSTRCGGATDRATFRAKVPMVTYEDLQPYILRIAHGDRSPILSGSGYPVSELLTSSGAGDRKLIPVVDDDHDRHHRLHSLVGAVVNQYVPGLDKGSGLYFLFVKSETTTPGGLPARTILTRIFTSDGVWKLPYNPRRGLTSPAAAVVCEDTFQSMYTQMLCGLCHRHSVLRVGAAFASGVLRAIRFFQRNWPQLAADIDAGTITDRVTDHVLRQALAGVLTQPDPDLARVVRSEGSKADDGADMAGIIARLWPNTKYVHAVATGSMAHYVPALNHYSGGLPIVSTAYFSSECSVGINLRPMCDPSEVSYTVMPNMAYFEFLPTDDDDATASATSQLVELAGVEVGREYELVVTTYSGLCRYRVGDVLRVTGFHNTAPQLRFVRRRNAVLSVESDKTDEVELQRAVDRASAALLRPLGAAVADYTARTCAETVPGHYVVYWELQLPLGAADVVVDGGDVLDRCCLEMEEALSSVYRQSRVADGTVGPLEIRVVRPGTFEELADHAVARGASVGQYKVPRCVTAPPDIELLDSRVVSNHFSPALPKWVPG
modifications: Sorghum bicolor
kcat (hrs−1) IAA-Asp [1]: 0.000 h⁻¹ | kcat (hrs−1) IAA-Glu [1]: 0.000 h⁻¹ | IAA conjugation activity with Asp or Glu ([1]; result in words): IAA-inactive | kcat (hrs−1) 2,4-D-Asp [2]: 0.000 h⁻¹ | kcat (hrs−1) 2,4-D-Glu [2]: 0.000 h⁻¹

B2: OsGH3-10: GH3 protein, accession Q6ZLA7 (protein, listed as Oryza sativa)
chain: MAAKGISTIGAASRSLSSSLMAAAKEPDVENLRLIEELTSNVDAVQERVLAEILGRNADAEYLDKCGLDASDTDRATFRAKVPVASYDDLKPYVKRIANGDRSPILSTHPIIEFFTSSGTSAGERKLMPIVTDEMARREVLSSLATSVLNVYVPGLHTGKGLYFLFARSETKTPGGLTAQPALTSVYKSEHFKRAYAYTSPMAAILCEDASQSMYAQMLCGLCQRHDVLRVGAVFAAALVRAIRFLQLNWAQLAADIETGELNPRVTDPSDRECSRGDWTGIVTRLWPKTKCLNVVVTGVMAQYIPTLQYYSGGLPIVSGMYASSECFFGLNLRPLCGPSEVSYTIMPNTAYFEFLPVGEAVDASNLVELARVEDGREYEVVVTTYAGLNRYRVGDVLCVTGFHNAAPQFRFVRRQSVLLSIEADKTDEAELQRAVERASSALLRPRGASIVEYTSRACTERVPGHFSPALPHWTLAP
kcat (hrs−1) IAA-Asp [1]: 0.000 h⁻¹ | kcat (hrs−1) IAA-Glu [1]: 0.000 h⁻¹ | IAA conjugation activity with Asp or Glu ([1]; result in words): IAA-inactive | kcat (hrs−1) 2,4-D-Asp [2]: 0.000 h⁻¹ | kcat (hrs−1) 2,4-D-Glu [2]: 0.000 h⁻¹

B3: AtGH3-17: GH3 protein, accession Q9FZ87 (protein, listed as Arabidopsis thaliana)
chain: MIPSYDPNDTEAGLKLLEDLTTNAEAIQQQVLHQILSQNSGTQYLRAFLDGEADKNQQSFKNKVPVVNYDDVKPFIQRIADGESSDIVSAQPITELLTSSGTSAGKPKLMPSTAEELERKTFFYSMLVPIMNKYVDGLDEGKGMYLLFIKPEIKTPSGLMARPVLTSYYKSQHFRNRPFNKYNVYTSPDQTILCQDSKQSMYCQLLCGLVQRSHVLRVGAVFASAFLRAVKFLEDHYKELCADIRTGTVTSWITDSSCRDSVLSILNGPNQELADEIESECAEKSWEGILRRIWPKAKYVEVIVTGSMAQYIPTLEFYSGGLPLVSTMYASSECYFGINLNPLCDPADVSYTLLPNMAYFEFLPVDDKSHEEIHFATHSNTDDDDDALKEDLIVNLVNVEVGQYYEIVITTFTGLYRYRVGDILKVTGFHNKAPQFRFVQRRNVVLSIDTDKTSEEDLLNAVTQAKLNHLQHPSSLLLTEYTSYADTSSIPGHYVLFWELKPRHSNDPPKLDDKTMEDCCSEVEDCLDYVYRRCRNRDKSIGPLEIRVVSLGTFDSLMDFCVSQGSSLNQYKTPRCVKSGGALEILDSRVIGRFFSKRVPQWEPLGLDS
kcat, conjugation of IAA with Asp ([1]; IAA with Asp): 52 h⁻¹ | kcat, conjugation of IAA with Glu ([1]; IAA with Glu): 868 h⁻¹ | kcat (hrs−1) IAA-Asp [1]: 51.838 h⁻¹ | kcat (hrs−1) IAA-Glu [1]: 867.723 h⁻¹ | kcat (hrs−1) 2,4-D-Asp [2]: 0.424 h⁻¹ | kcat (hrs−1) 2,4-D-Glu [2]: 0.988 h⁻¹

B4: AlGH3-12: GH3 protein, accession XP_002871561 (protein, listed as Arabidopsis lyrata)
chain: MKPISDINESFEKQLKYLTSDVKQIQDNLLEEIITPNTKTEYLQRFLIGRFDKDLFKKNVPIVTYEDIKPYLDRVVNGESSDVISARPITGFLLSSGTSGGAQKMMPWNNKYLDNLTFIYDLRMQVITKHVKGVEEGKGMMFLFTKQESMTPSGLPARVATSSYFKSDYFKHRPSNWYYSYTSPDEVILCPNNTQSLYCHLLCGLVQRDEVVRTGSIFASVMVRAIEVLKNSWEELCSNIRSGHLSNWVTDLGCQSSVSLVLGGPRPELADTIEEICNQKSWKGIVKRLWPNTKYIETVVTGSMGQYVPMLNYYCNDLPLVSTTYGSSETTFGINLDPLCKPEDVSYTFMPNMSYFEFIPMDGDNNDVVDLEDVKLGCTYEPVVTNFAGLYRMRVGDIVLVTGFYNNAPQFKFVRRENVVLSIDSDKTNEEDLFKAVSQAKLVLESSGLDLKDFTSYADTSTFPGHYVVYLEVDTKEGEEKKTAQFELDEEALSMCCLVMEESLDNVYKRCRFKDGSIGPLEIRVVRQGTFISLMDFFISQGASTGQYKTPRCIKSGKALQVLETCVVAKFFSS
Conjugation of Glu to IAA ([1]; result in words): can also conjugate Glu to IAA

B5: AtGH3-3: GH3 protein, accession O22190 (protein, listed as Arabidopsis thaliana)
chain: MTVDSALRSPMMHSPSTKDVKALRFIEEMTRNVDFVQKKVIREILSRNSDTEYLKRFGLKGFTDRKTFKTKVPVVIYDDLKPEIQRIANGDRSMILSSYPITEFLTSSGTSAGERKLMPTIDEDMDRRQLLYSLLMPVMNLYVPGLDKGKALYFLFVKTESKTPGGLPARPVLTSYYKSEQFKRRPNDPYNVYTSPNEAILCPDSSQSMYTQMLCGLLMRHEVLRLGAVFASGLLRAIGFLQTNWKELADDISTGTLSSRISDPAIKESMSKILTKPDQELADFITSVCGQDNSWEGIITKIWPNTKYLDVIVTGAMAQYIPMLEYYSGGLPMACTMYASSESYFGINLKPMCKPSEVSYTIMPNMAYFEFLPHHEVPTEKSELVELADVEVGKEYELVITTYAGLNRYRVGDILQVTGFYNSAPQFKFVRRKNVLLSIESDKTDEAELQSAVENASLLLGEQGTRVIEYTSYAETKTIPGHYVIYWELLVKDQTNPPNDEVMARCCLEMEESLNSVYRQSRVADKSIGPLEIRVVKNGTFEELMDYAISRGASINQYKVPRCVSFTPIMELLDSRVVSTHFSPALPHWSPERRR
kcat (hrs−1) IAA-Asp [1]: 0.000 h⁻¹ | kcat (hrs−1) IAA-Glu [1]: 0.000 h⁻¹ | IAA conjugation activity with Asp or Glu ([1]; result in words): IAA-inactive | kcat (hrs−1) 2,4-D-Asp [2]: 0.000 h⁻¹ | kcat (hrs−1) 2,4-D-Glu [2]: 0.000 h⁻¹

B6: SmXP_002981880: GH3 protein, accession XP_002981880 (protein, listed as Selaginella moellendorffii)
chain: MAASAIAEFEDACKNAASIQEELLLGILRKNACCEYLQKYGSPLTVAAFKSQVPVIGYDDIRSDLERIAGGDRGQILCHDPITSFFTSSGTSSGKNKNIPATYENTVSVVKVLESSYAYKTNYFDLGKGRSVSLLYFKDLHATKSGLVFGPVTAHGIRSTRFRQVWRSSRTTPYEVLVAASDFRELTYCHLLCALLQRHEVEQVECMYAYSICEALRLFQNEYWEELCNDIRTASLSKTKVMDPKLRKAFERAGVFRSKCGNAMEADKIFKICSNESWSGILPLLFPKAKLVSAVVTGAMTHYVPTLSFYAGDQLPIVGQGFFSSEGGIGINIDPLSPPEDVIYTVTPRSLYYEFLPLGATEALSMHEVVIGELYEILVTNFAGLYRCRMGDVVQITSFFHGAPQMAYHHRKNAVMCINNETVDEQMLQNVVNKVSKDAGVEVLDFMIYGDPAAVPPSYTIFWELGNAKDYSKTQVLEQCCANVLKSFNPEHTRKGTDGLIDSFELVIVKKGTFERLMEEAVKNGASPAQYKTPRCVASSRILEALNSGRVHSYKSSAMSKVN
kcat (hrs−1) IAA-Asp [1]: 1.475 h⁻¹ | kcat (hrs−1) IAA-Glu [1]: 1.759 h⁻¹ | IAA conjugation activity with Asp or Glu ([1]; result in words): can also conjugate IAA to Asp and Glu | kcat (hrs−1) 2,4-D-Asp [2]: 0.144 h⁻¹ | kcat (hrs−1) 2,4-D-Glu [2]: 0.739 h⁻¹
